Results on five proteins are retold here after publication PMC11301059, “The origin of esterase activity of Parkinson's disease causative factor DJ-1 implied by evolutionary trace analysis of its prokaryotic homolog HchA” (The Journal of Biological Chemistry, 2024).

Changes are numbered by the printed parent chain. Names may count otherwise.

The term kcat denotes the maximal rate divided by the concentration of active sites. For orientation: kcat/Km means the turnover number divided by the Michaelis constant.

Substrate in data set [1]: O=CC(=O)c1ccccc1
Description: PGO consumption, A250, initial velocity, Michaelis-Menten fit. The conditions noted are these: 20 mM sodium phosphate pH 7.0, 37 °C. In kind it is biochemical, Escherichia coli. The source says: PGO consumption, A250, initial velocity, Michaelis-Menten fit on HchA

Substrate in data set [2]: CC(=O)Oc1ccc([N+](=O)[O-])cc1
Description: pNP formation, A400, initial velocity, Michaelis-Menten fit. Format: biochemical, Escherichia coli. As to conditions: 50 mM sodium phosphate pH 7.0, 37 °C, 1 μM enzyme. The source says: pNP formation, A400, initial velocity, Michaelis-Menten fit on HchA

Substrate in data set [3]: CC(=O)Oc1ccc([N+](=O)[O-])cc1
The description is as above. Format: biochemical, Homo sapiens. The conditions noted are these: 50 mM sodium phosphate pH 7.0, 37 °C, 0.7 μM enzyme. The source says: pNP formation, A400, initial velocity, Michaelis-Menten fit on DJ-1

Substrate in data set [4]: O=CC(=O)c1ccccc1
Description: PGO consumption, A250, initial velocity, Michaelis-Menten fit. Format: biochemical, Homo sapiens. The conditions noted are these: 20 mM sodium phosphate pH 7.0, 37 °C. The source says:
PGO consumption, A250, initial velocity, Michaelis-Menten fit on DJ-1

B1: HchA (Escherichia coli K-12) (protein)
chain: MTVQTSKNPQVDIAEDNAFFPSEYSLSQYTSPVSDLDGVDYPKPYRGKHKILVIAADERYLPTDNGKLFSTGNHPIETLLPLYHLHAAGFEFEVATISGLMTKFEYWAMPHKDEKVMPFFEQHKSLFRNPKKLADVVASLNADSEYAAIFVPGGHGALIGLPESQDVAAALQWAIKNDRFVISLCHGPAAFLALRHGDNPLNGYSICAFPDAADKQTPEIGYMPGHLTWYFGEELKKMGMNIINDDITGRVHKDRKLLTGDSPFAANALGKLAAQEMLAAYAG
notes: N-terminal His-tag (pET21a), expressed in E. coli BL21(DE3)+RIL, Ni-NTA purified, tag removal not mentioned; dimer
Turning to B1, in data set [1] (0.3 μM enzyme), the Km was 1.49 ± 0.40 × 10^-4 M, the kcat amounted to 0.67 ± 0.053 s⁻¹ and the catalytic efficiency (kcat/Km) was determined as 4730 ± 1250 M⁻¹ s⁻¹.

B2: HchA (Escherichia coli K-12; D214A) (protein)
chain: B1 chain with D214A
notes: as for B1
As to B2, in data set [1] (1.8 μM enzyme), the Km is 2.55 ± 0.47 × 10^-5 M, the kcat turned out to be 0.075 ± 0.005 s⁻¹ and the kcat/Km was determined as 2980 ± 355 M⁻¹ s⁻¹.

B3: HchA (Escherichia coli K-12; H186A) (protein)
chain: B1 chain with H186A
notes: as for B1
Turning to B3, in data set [2], the Km is 4.76 ± 0.36 × 10^-3 M, the catalytic constant (kcat) is 3.11 ± 0.144 s⁻¹ and the kcat/Km is 655 ± 19.4 M⁻¹ s⁻¹. In addition, in data set [1] (1.8 μM enzyme), the Km is 1.87 ± 0.24 × 10^-5 M, the catalytic constant (kcat) came to 0.0491 ± 0.004 s⁻¹ and the kcat/Km was determined as 2640 ± 202 M⁻¹ s⁻¹.

B4: DJ-1 (Homo sapiens) (protein)
chain: MASKRALVILAKGAEEMETVIPVDVMRRAGIKVTVAGLAGKDPVQCSRDVVICPDASLEDAKKEGPYDVVVLPGGNLGAQNLSESAAVKEILKEQENRKGLIAAICAGPTALLAHEIGFGSKVTTHPLAKDKMMNGGHYTYSENRVEKDGLILTSRGPGTSFEFALAIVEALNGKEVAAQVKAPLVLKD
notes: N-terminal His-tag (pET28a), expressed in E. coli BL21(DE3)+RIL, Ni-NTA purified, tag removal not mentioned
As for B4, in data set [3], the Km is given as 4.76 ± 1.25 × 10^-3 M, the turnover number (kcat) stood at 5.47 ± 0.935 s⁻¹ and the kcat/Km is 1180 ± 203 M⁻¹ s⁻¹. In data set [4] (2 μM enzyme), the Km is recorded as 5.22 ± 0.65 × 10^-5 M, the turnover number (kcat) was determined as 0.12 ± 0.007 s⁻¹ and the specificity constant (kcat/Km) was 2400 ± 229 M⁻¹ s⁻¹.

B5: DJ-1 (Homo sapiens; A107H) (protein)
chain: B4 chain with A107H
notes: as for B4
B5: in data set [4] (0.3 μM enzyme), the Km was 6.44 ± 1.13 × 10^-4 M, the turnover number (kcat) came to 1.65 ± 0.127 s⁻¹ and the catalytic efficiency (kcat/Km) stood at 2600 ± 303 M⁻¹ s⁻¹.
